For one assay, the target named is T1, ScpA_(S512A,E864A) (Streptococcus pyogenes, UniProt P15926 31-1032, S512A | E864A).
T1 construct: Made by QuikChange II from pGEX ScpA(31-1032); also called E864A_(S512A); source: details in Supplemental Information SI1 and SI2
T1 sequence (looked up): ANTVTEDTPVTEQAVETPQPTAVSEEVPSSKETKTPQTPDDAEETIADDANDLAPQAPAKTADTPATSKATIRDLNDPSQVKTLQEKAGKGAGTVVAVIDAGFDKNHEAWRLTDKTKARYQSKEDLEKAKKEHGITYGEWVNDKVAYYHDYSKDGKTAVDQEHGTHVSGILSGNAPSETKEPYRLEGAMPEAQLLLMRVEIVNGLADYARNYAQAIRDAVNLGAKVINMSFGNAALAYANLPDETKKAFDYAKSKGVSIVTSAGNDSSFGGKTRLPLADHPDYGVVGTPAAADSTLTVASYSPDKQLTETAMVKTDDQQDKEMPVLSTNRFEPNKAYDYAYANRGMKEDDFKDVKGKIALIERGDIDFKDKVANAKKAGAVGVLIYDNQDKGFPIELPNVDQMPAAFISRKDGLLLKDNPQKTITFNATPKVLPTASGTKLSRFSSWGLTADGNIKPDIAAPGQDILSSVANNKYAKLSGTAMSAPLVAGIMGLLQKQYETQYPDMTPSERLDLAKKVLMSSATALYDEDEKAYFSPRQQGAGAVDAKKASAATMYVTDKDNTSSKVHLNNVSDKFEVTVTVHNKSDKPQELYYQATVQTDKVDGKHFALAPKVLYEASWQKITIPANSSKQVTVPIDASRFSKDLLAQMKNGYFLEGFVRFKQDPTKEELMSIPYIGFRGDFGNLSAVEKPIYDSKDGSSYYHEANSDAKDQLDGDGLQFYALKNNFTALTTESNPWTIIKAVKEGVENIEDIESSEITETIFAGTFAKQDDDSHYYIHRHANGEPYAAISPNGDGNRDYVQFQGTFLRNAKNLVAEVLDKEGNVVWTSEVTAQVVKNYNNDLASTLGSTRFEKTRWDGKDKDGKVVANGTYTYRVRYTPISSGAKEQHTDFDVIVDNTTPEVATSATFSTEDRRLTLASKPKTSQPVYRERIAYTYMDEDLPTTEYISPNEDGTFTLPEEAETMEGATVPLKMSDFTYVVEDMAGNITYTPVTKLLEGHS
As to the kind of experiment: SPR; BIAcore X100, NTA sensor chip with about 20-25 RU of immobilised His-tagged C5a form (ligand), ScpA form flowed as ligate at 30 uL/min, 25 °C, 10 mM Hepes-KOH pH 7.4, 150 mM NaCl, 0.005% Tween 20, 50 uM EDTA; global fit, 1:1 Langmuir model with drifting baseline; triplicate. Particulars: both partners purified. (In general: SPR reads the build-up and loss of mass on a sensor chip optically.)

In another assay the target is T2, ScpA_(S512A,D783A) (Streptococcus pyogenes, UniProt P15926 31-1032, S512A | D783A).
T2 construct: Made by QuikChange II from pGEX ScpA(31-1032); The active form D783A (S512 intact) was used for activity assays and for the crystal structure 7YZX; also called D783A_(S512A); source: details in Supplemental Information SI1 and SI2
T2 sequence (looked up): T1 sequence (looked up) with D753A, A834E
Described as above. Particulars: both partners purified.

Where a chain is given by its changes, count along the chain named.

B1: Recombinant human C5a (rhC5a) (natural protein, UniProt P01031 678-751, looked up)
chain: TLQKKIEEIAAKYKHSVVKKCCYDGACVNNDETCEQRAARISLGPRCIKAFTECCVVASQLRANISHKDMQLGR
notes: human complement C5a anaphylatoxin, residues 1-74 (core 1-67 and tail 68-74); also called full length rhC5a; substrate; not shown: His6, N-terminal, kept
As to B1, in the assay with ScpA_(S512A,E864A), the Kd (in general, a measure of binding affinity in units of concentration) was found to be 25 nM; the koff (as a rule, the rate constant with which the complex falls apart) came to 0.0064 s⁻¹; the kon (usually the second-order rate constant of association) is 260000 M⁻¹ s⁻¹. Besides, in the assay with ScpA_(S512A,D783A), the Kd is 314 nM, the koff was determined as 0.0237 s⁻¹ and the kon stood at 75400 M⁻¹ s⁻¹.

(Values after paper PMC9464890, “Exosite binding modulates the specificity of the immunomodulatory enzyme ScpA, a C5a inactivating bacterial protease” (Computational and Structural Biotechnology Journal, 2022).)
